From article PMC3253924 (DNA Repair, 2011)
Residue numbers refer to the chain shown, from its start. Names and notes keep the numbering of the source. Where two headings read alike, the source gives them in different places.

B1: mouse TREX1 catalytic core (residues 1-242), wild type (enzyme, UniProt Q91XB0 1-242, looked up)
chain: MGSQTLPHGHMQTLIFLDLEATGLPSSRPEVTELCLLAVHRRALENTSISQGHPPPVPRPPRVVDKLSLCIAPGKACSPGASEITGLSKAELEVQGRQRFDDNLAILLRAFLQRQPQPCCLVAHNGDRYDFPLLQTELARLSTPSPLDGTFCVDSIAALKALEQASSPSGNGSRKSYSLGSIYTRLYWQAPTDSHTAEGDVLTLLSICQWKPQALLQWVDEHARPFSTVKPMYGTPATTGTT
B2: mouse TREX1 catalytic core (residues 1-242), D18N mutant (enzyme, UniProt Q91XB0 1-242, looked up)
chain: B1 chain with D18N
B3: mouse TREX1 catalytic core (residues 1-242), V201D mutant (enzyme, UniProt Q91XB0 1-242, looked up)
chain: B1 chain with V201D
B4: mouse TREX1 catalytic core (residues 1-242), D200N mutant (enzyme, UniProt Q91XB0 1-242, looked up)
chain: B1 chain with D200N
B5: mouse TREX1 catalytic core (residues 1-242), D200H mutant (enzyme, UniProt Q91XB0 1-242, looked up)
chain: B1 chain with D200H

Legend:
[1] = biological target: the molecule itself; experiment: crystal structure
[2] = biological target: the molecule itself; experiment: crystal structure; remark: listed apart in the source

Row | Protein | binding result [1] | binding result [2]
1 | B1 | binds | 
2 | B2 |  | binds
3 | B3 |  | binds
4 | B4 |  | binds
5 | B5 |  | binds
